{"source": "paper PMC6284806", "about": "(Nanotechnology, 2015)", "proteins": {"B1": {"name": "Horse spleen apoferritin (natural protein, UniProt P02791 1-175, looked up)", "chain": "MSSQIRQNYSTEVEAAVNRLVNLYLRASYTYLSLGFYFDRDDVALEGVCHFFRELAEEKREGAERLLKMQNQRGGRALFQDLQKPSQDEWGTTLDAMKAAIVLEKSLNQALLDLHALGSAQADPHLCDFLESHFLDEEVKLIKKMGDHLTNIQRLVGSQAGLGEYLFERLTLKHD"}}, "molecular_target": "the molecule itself", "assay": "AUC"}
{"protein": "B1", "values": [{"measurement": "stoichiometry N", "result": 24}]}
